Tests used:
[1] = molecular target: T1, human CD137 expressed on cells (Flp-In-CHO::huCD137; NFkB-luc2/CD137 Jurkat cells) (human, UniProt Q07011 24-255); assay: cell-based or functional assay
[2] = molecular target: T2, human GPC3 expressed on cells (SK-Hep1::huGPC3; HepG2, Hep3B and MKN-45 tumor cells) (human, UniProt P51654 25-554); assay: flow cytometry on HepG2 tumor cells (GPC3 high)
T2 construct: whole, on cells; also called GPC3-positive tumor cells; human GPC3-expressing cells
Method: (§1) 5×10⁴ cells per well were incubated for 1 h in ice-cold PBS containing 5% fetal calf serum (PBS-FCS). A dilution series of the testing molecule were added to the cells and incubated for 1 h on ice. Cells were washed twice with PBS and then incubated with a goat anti-hlgG Alexa647-labeled antibody or goat anti-hlgG Alexa488-labeled antibody for 30 min on ice. Cells were subsequently washed and analyzed using iQue Flow cytometer (Intellicyte Screener). Mean geometric fluorescent signals were plotted and fitted with Graphpad software. The geometric means of the fluorescence intensity were used to calculate EC₅₀ values using a four-parameter logistic regression with bottom fixed to background.
(§2) For flow cytometric analysis, tumor cell lines with different GPC3 expression levels (high to moderate expression: HepG2>Hep3B>MKN-45) and GPC3 negative cell line NCI-N87 were incubated with an exemplary fusion protein SEQ ID NOs: 87 and 82, the GPC3 antibody or the CD137 specific lipocalin mutein (Fc fusion) as included in the fusion protein (SEQ ID NOs: 81 and 82 and SEQ ID NO: 98, respectively), a reference CD137 antibody SEQ ID NOs: 26 and 27, or an isotype control (SEQ ID NO: 24 and 25), and detected using a fluorescently labeled anti-human IgG antibody as described in Example 6.

[3] = molecular target: T2, human GPC3 expressed on cells …; assay: flow cytometry on Hep3B tumor cells (GPC3 positive)
Method: as §1, §2

[4] = molecular target: T2, human GPC3 expressed on cells …; assay: flow cytometry on MKN-45 tumor cells (GPC3 moderate)
Method: as §1, §2

[5] = molecular target: T3, recombinant human GPC3 (huGPC3) (R&D Systems) (human, UniProt P51654 25-559); assay: ELISA, huGPC3 coated, detection anti-human IgG Fc-HRP
T3 construct: also called biotinylated huGPC3
Method: Recombinant huGPC3 (R&D Systems) at the concentration of 1 μg/mL in PBS was coated overnight on microtiter plates at 4° C. After five washes with 100 μL PBS-0.05% T (PBS supplemented with 0.05% (v/v) Tween 20), the plates were blocked with 2% BSA (w/v) in PBS-0.1% T (PBS-0.1% T-2% BSA) for 1 h at room temperature. After washing with 100 μL PBS-0.05% T (PBS supplemented with 0.05% (v/v) Tween 20) five times, exemplary fusion proteins (SEQ ID NOs: 87 and […] and CD137Ac1-Fusion 1 to 7) or the GPC3 antibody as include in the fusion proteins (SEQ ID NOs: 81 and 82) at different concentrations were added to the wells and incubated for 1 h at room temperature, followed by another wash step. Bound molecules under study were detected by incubation with 1:5000 diluted anti-human IgG Fc-HRP (Jackson Laboratory) in PBS-0.1% T-2% BSA. After an additional wash step, fluorogenic HRP substrate (QuantaBlu, Thermo) was added to each well and the fluorescence intensity was detected using a fluorescence microplate reader.
Exemplary results are depicted in FIG. 2A-2D, together with the fit curves resulting from a 1:1 binding sigmoidal fit, where the EC₅₀ value and the maximum signal were free parameters, and the slope was fixed to unity.

[6] = molecular target: T1, human CD137 expressed on cells …; assay: flow cytometry on Flp-In-CHO::huCD137 cells, anti-human IgG detection
Method: (§3) For flow cytometric analysis, respective cell lines were incubated with an exemplary fusion protein (SEQ ID NOs: 87 and 82), the GPC3 antibody or the CD137 specific lipocalin mutein (Fc fusion) as included in the fusion protein (SEQ ID NOs: 81 and 82 and SEQ ID NO: 98, respectively), a reference CD137 antibody SEQ ID NOs: 26 and 27, or an isotype control (SEQ ID NOs: 24 and 25) and detected using a fluorescently labeled anti-human IgG antibody in FACS analysis as described in the following:
as §1

[7] = molecular target: recombinant cynomolgus GPC3 (cyGPC3) (R&D Systems) (cynomolgus, UniProt A0A2K5VK50 24-558); assay: SPR (Biacore T200), binder captured by anti-human IgG Fc, cyGPC3 as analyte, 1:1 model
Method: The anti-human IgG Fc antibody (GE Healthcare) was immobilized on a CM5 sensor chip using standard amine chemistry: the carboxyl groups on the chip were activated using 1-ethyl-3-(3-dimethylaminopropyl)-carbodiimide (EDC) and N-hydroxysuccinimide (NHS). Subsequently, anti-human IgG Fc antibody solution (GE Healthcare) at a concentration of 25 μg/mL in 10 mM sodium acetate (pH 5.0) was applied at a flow rate of 5 μL/min until an immobilization level of 6000-10000 resonance units (RU) was achieved. Residual non-reacted NHS-esters were blocked by passing a solution of 1M ethanolamine across the surface. The reference channel was treated in an analogous manner. Subsequently, testing fusion proteins (SEQ ID NOs: 87 and 82 and CD137Ac1-Fusion 1) or the GPC3 antibody as included in the fusion protein (SEQ ID NOs: 81 and 82) at 0.2 μg/ml in HBS-EP+ buffer was captured by the anti-human IgG-Fc antibody at the chip surface for 180 s at a flow rate of 10 μL/min. After each capture step, the needle was washed.
The binding assay was carried out with a contact time of 180 s, a dissociation time of 900 s, and a flow rate of 30 μL/min. After each injection, the needle was cleaned with 40 mM NaOH+20% isopropanol. All measurements were performed at 25° C. […] Prior to the protein measurements, three startup cycles were performed for conditioning purposes. Data were evaluated with Biacore T200 Evaluation software (v2.0). Double referencing was used and the 1:1 binding model was used to fit the raw data.

[8] = molecular target: T1, human CD137 expressed on cells …; assay: flow cytometry, CHO cells transfected with human CD137, detection labelled anti-human IgG, GeoMean BL1-H [lower graph]
Method: as §3, §1

T2 sequence (P51654 25-554 limits assumed): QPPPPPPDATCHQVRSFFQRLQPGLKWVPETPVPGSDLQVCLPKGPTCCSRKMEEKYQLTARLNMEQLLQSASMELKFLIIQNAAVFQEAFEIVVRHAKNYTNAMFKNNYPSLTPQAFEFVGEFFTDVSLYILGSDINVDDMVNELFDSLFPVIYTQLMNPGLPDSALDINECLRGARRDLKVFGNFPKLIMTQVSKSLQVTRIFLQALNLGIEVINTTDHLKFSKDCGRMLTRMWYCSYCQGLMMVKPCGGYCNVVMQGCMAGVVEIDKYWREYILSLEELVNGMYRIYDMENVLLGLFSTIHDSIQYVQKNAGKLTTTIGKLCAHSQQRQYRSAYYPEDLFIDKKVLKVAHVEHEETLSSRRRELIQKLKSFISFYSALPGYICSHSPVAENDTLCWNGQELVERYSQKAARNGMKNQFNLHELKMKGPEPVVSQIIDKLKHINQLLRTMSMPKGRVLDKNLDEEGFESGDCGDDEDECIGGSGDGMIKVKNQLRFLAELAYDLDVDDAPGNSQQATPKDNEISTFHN
T1 sequence (Q07011 24-255): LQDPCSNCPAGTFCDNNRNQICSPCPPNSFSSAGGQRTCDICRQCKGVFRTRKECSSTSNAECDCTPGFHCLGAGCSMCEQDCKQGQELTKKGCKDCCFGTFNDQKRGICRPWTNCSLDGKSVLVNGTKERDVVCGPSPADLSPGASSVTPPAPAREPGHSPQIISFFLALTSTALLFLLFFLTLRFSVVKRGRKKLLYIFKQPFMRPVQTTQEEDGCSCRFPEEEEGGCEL
T3 sequence (P51654 25-559 limits assumed): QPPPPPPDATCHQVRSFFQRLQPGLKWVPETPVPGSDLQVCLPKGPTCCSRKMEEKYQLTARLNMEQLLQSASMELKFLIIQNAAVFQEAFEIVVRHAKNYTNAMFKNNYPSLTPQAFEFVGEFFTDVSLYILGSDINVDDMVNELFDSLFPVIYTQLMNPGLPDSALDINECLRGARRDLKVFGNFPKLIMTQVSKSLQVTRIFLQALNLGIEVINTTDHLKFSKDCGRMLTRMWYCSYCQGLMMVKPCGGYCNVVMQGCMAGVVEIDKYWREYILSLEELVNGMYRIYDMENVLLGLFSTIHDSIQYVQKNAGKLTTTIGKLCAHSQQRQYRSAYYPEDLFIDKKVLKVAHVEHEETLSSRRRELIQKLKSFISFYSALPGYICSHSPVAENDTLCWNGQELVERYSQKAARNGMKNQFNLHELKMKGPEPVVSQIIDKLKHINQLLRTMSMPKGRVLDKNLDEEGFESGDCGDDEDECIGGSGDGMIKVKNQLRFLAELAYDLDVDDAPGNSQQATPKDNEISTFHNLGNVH

B1: fusion protein SEQ ID NOs: 87 and 82 (bispecific antibody, human IgG4 S228P, kappa, F234A L235A)
heavy: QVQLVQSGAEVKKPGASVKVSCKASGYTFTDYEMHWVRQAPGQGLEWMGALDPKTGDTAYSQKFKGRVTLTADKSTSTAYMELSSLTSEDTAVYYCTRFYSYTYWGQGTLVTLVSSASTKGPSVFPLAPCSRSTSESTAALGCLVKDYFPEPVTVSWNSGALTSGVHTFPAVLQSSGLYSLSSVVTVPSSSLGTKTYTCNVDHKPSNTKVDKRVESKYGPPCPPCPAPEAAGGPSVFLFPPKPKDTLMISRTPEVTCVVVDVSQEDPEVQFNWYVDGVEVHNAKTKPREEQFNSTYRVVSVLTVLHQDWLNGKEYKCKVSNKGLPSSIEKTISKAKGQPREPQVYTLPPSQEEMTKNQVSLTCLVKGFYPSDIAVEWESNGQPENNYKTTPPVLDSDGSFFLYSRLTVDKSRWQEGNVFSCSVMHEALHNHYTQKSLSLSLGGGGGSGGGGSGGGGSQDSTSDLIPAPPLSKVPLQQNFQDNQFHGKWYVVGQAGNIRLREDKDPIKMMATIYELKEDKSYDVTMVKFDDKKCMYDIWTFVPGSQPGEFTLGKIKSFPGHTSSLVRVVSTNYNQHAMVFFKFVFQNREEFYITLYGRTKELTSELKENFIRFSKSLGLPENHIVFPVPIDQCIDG
light: DVVMTQSPLSLPVTPGEPASISCRSSQSLVHSNRNTYLHWYLQKPGQSPQLLIYKVSNRFSGVPDRFSGSGSGTDFTLKISRVEAEDVGVYYCSQNTHVPPTFGQGTKLEIKRTVAAPSVFIFPPSDEQLKSGTASVVCLLNNFYPREAKVQWKVDNALQSGNSQESVTEQDSKDSTYSLSSTLTLSKADYEKHKVYACEVTHQGLSSPVTKSFNRGEC
notes: also called exemplary fusion protein
EC50, CD137 Bioassay (NFkB-luc2/CD137 Jurkat cells co-cultured with Hep3B) [1]: 0.78 nM | EC50, CD137 Bioassay (NFkB-luc2/CD137 Jurkat cells co-cultured with HepG2) [1]: 0.38 nM | EC50 [2]: 20.6 nM | EC50 [3]: 7.92 nM | EC50 [4]: 2.59 nM | EC50 [5]: 0.19 nM | EC50 [6]: 13.1 nM | Kd [7]: 0.936 nM | koff [7]: 0.000275 s⁻¹ | kon [7]: 293000 M⁻¹ s⁻¹ | EC50 (read off the curve) [8]: ~20 nM
